Numbering of substitutions follows the chain as printed.
Substrate: PET
Assay: Proxy for plastic degradation [Released monomer concentration (HPLC/LC-MS) (TPA+MHET+BHET)]
Conditions: pH 9

B1: unnamed (protein)
chain: MKAPLFKLAAFTLGVSLSSVALATNPGGGGAGSNPDTGTGFPGVSSFSADGSFATTSGSAGLSCTVFRPSTLGANGLKHPIIVWGNGTTASPSTYSGILEHWASHGFVVIAANTSNAGTGQDMLNCVDYLTTQNNRSTGTYANKLDLNRIGAAGHSQGGGGTIMAGQDYRIKVTAPFQPYTIGLGHNSSSQSNQNGPMFLMTGSADTIASPTLNALPVYNRANVPVFWGELSGASAFEPVGSAGDFRGPSTAWFRYHLMDDASAEDTFYGSNCDLCTDNDWDVRRKGIN
Proxy for plastic degradation: 10 µM

B2: unnamed (protein)
chain: B1 chain with A236H, F237I
Proxy for plastic degradation: 1280 µM

B3: unnamed (protein)
chain: B1 chain with G183A, A236H
Proxy for plastic degradation: 600 µM

B4: unnamed (protein)
chain: B1 chain with Y180W, A236H
Proxy for plastic degradation: 195 µM

— the PETadex activity labels (doi:10.1101/2025.08.30.673199)
